Test results: the DeepSol protein solubility set

Test: soluble on expression in E. coli; label from the status in PepcDB or PDB records

| Sequence | soluble on expression in E. coli |
| --- | --- |
| MAESYEEWKSFALKLDEETGAQEWKFDNSSPYFDAELISYRYTLLKRYRQQHRTLDLIYLLKEGLTYDIANIGHPMLFAATHVGTKKLIEDYIEEVSQSLAYIASSECITFQRKEKIEFFENCEKAYGQPALMFSGGATLGLFHTGVCKALIEQDLMPKVLSGSSAGAIMTGMLGISASEDIQNLLNGEQFFSDAFHFRKLRELIKGNGGIADVHYLKKFLIENLGDLTFEEAFKKSGLNINVAVAPYDATENPRIMNAIMTPNVLVWSAVLASCAVPVLFPPVRLTSKRYDGEHTPYMANTKWVDGSVRSDFPQERMARLYNLNYTIASQVNPHVVPFMQDDARRFRKDVLSWPERILRRQGKVLSMGLMDFTRQRLGAISPVRRLLDHGYGVVGQRYYGDVNIIAKYSLKHYAYTLQNPRPHLFKRLQREGERATWPKISSIETHARIGKTIQHCLEVLRFEEKKLEHHHHHH | not soluble |
| MTASFPTRVYLLRHAKAAWAAPGERDFDRGLNEAGFAEAEIIADLAADRRYRPDLILSSTAARCRQTTQAWQRAFNEGIDIVYIDEMYNARSETYLSLIAAQTEVQSVMLVGHNPTMEATLEAMIGEDLLHAALPSGFPTSGLAVLDQDDSAASGKNRWRLIDFLAPGK | soluble |
| MSLESVKCIFERHPDFASKFRPKNRHMKSTYMTVLLGLIKTMCQLPEELTDDDLDEASVAVSYVENGGLRLDWLEKKLAEVKAKKKKVETGKARLQRAEEELQKLNQKCLEMKAFLEKENADVSEANVPLSFEDVVSMIPLPNLHAKNAGYLVNGEVKIVVEINDLEVIGKLDVSEESEETNQPLKKIKLDDNDAVSFDSLNETSPVKESIDVNGFQVLPSEGHHHHHH | soluble |
| MGSDKIHHHHHHMFFIRVDSNQTISGGHIMRCLAIAKALIINGKDVTFLIADDNPVEVLKQNRVSYVILNSDWQDLMSDLEQTIKVLSQENDPYLLIDTYCITKEYVEGLKAYAKVGYLGSKSEYLGNLDFLINYSSYIDYNYYKNNYFNGTKLLLGISYAPLRDEFQNQEPHYREQVRNILITTGNTDNDGMVGLLLDRLRYLLKEKNIIANVIIGRMFNNKELLHVKYDDNSNVKLYENVSSMSTIMRNCDLAISANGTTIYELSAMAIPTISFAMVEEQVKSAEGLDALRVIDYCGTSYTDVNKCVKAIIDKALYYIENYDNRIRLAQNAHNLIDGNGCQKIIDELF | not soluble |
| MSLRAALADLHASIVSARKAPFSDRPIEGSLERCLAALAPLCRRARITRLGDLTGLDRLGLPVMQAVRPAALSEVTSLGRGLSRAEAAVGALMESLERYFAEAIPAERTFLATADQLEVTDGLFENLVVPEWRGKWRQRTIAWIEGIDVVGGSAYPVPLELVHTRYSEPQPAHDGAFLRTTTGLACHTSRHGAFLHGLWECLERDAIARAFGTHGFFDRWRIAPCGLGDGVDHIRSLAGARGISFALWLAPSPAAVPVVWCQTVEAGHGEPILALPTEGYAAGPSIEMAAASAMLEALSARAGAISGARDDQTREHYRRSTDAAVAKARELVLADAASKPGEATYATIPDPGTLLDRVVEAGLGPVLAIPVGVDEEAGVHCVRTVLPGASPFFVLREGHHHHHH | not soluble |
| MKNASVITVGNEILKGRTVNTNAAFIGNFLTYHGYQVRRGFVVMDDLDEIGWAFRVALEVSDLVVSSGGLGPTFDDMTVEGFAKCIGQDLRIDEDALAMIKKKYGQADLTPQRLKMAKIPPSCRPIENPVGTAPGLICAVGGKKVIILPGVPKEMEALLKAMEKDIIIPDTHYYDDSVIIADVMESAFAPYVDRIMKEFDGIYVKSHPRNVEVKNPELEIEISGFGEDEAALRKKIEDAIARAGEYAVKLGGSVKR | not soluble |
| AIAPLGEEKNGKCDGSIYVNNPHLDSMTDDILYHFNLGTSTHDLPKMFGDVKFVCVGGSPWRMKSFTEYIAKELGLVDPNAEYPNICAGTDRYAMYKVGPVLSVSHGMGIPSISIMLHELIKLLYHARCTDVTVVRIGTSGGIGLKPGTVVVTKQSVDSLFQPHLEQTILGKPVVRSTELDKELAEELLQCGKELGEFEIIIGNTMCTLDFYEGSNVFEDKCTRIAAYSFKIHVL | soluble |
| DEIIDGEDELEQDDPFEGEDIDPESIQEPEASYDSSSSPSGASNAEDDWQDEHRVRKFHINGVTVKAIAERVQYYDADGKLVTESFKDYTRKTMAKQFTSMDDFVKRWQDADKKQAIIDELAEEGIIWEALELEVGKDLDPFDMICHVVYDQPALTRKERADNVKKRNYFTKYGETAQQVLNNLLDKYADEGVQEIENIHVLKVKPFDEMGRPAEIVKKCFGGKEQYLEAISELEAEIY | not soluble |
| MSSSTSPFLRAISRLIKASFFALSKFSLNCMYKSIQAELLKITYLAFMVKAMIFIPKEKHVYSFGPDMKEVARAKPGEIIVFETLDALGGQIRSEEDTVEKIDFSRVNPATGPVYIEGAEKGKILKVKILEIEVNDRGVIVTAPGAGVLGDLVKAPKTKVCRIANGFVQFGEFKIPVRPMIGVIGVASPEEIPTGTPGRHGGNMDTNLITEGSTVYFPIFKDGAYLALGDLHAVMADGEVCVSACEVSGKVTVKTEVLSGSIEWPIVETSDAYYILVSEEDLEDAVREAVKQGVDILRRANELSWDEAYMLASLIMDVQISQLVDPRKTVRVRIPKQYLKMSLFLEHHHHHH | not soluble |
| MKIGYLGPRGTFTEMAVQTLFDDKNVLKPYRTIPDCMDSVANGDMDAAVVPVENAIEGSVNVTLDYLIHKQRLEIVADIVVPISQHFLVHPNQRDNEIKKILSHPHAVAQCHEFLRSSYPGVEIEYMTSTAAAAQWVADHPNEPVAAIANEQAATSYQLDMLEKDIHDYDENRTRFAVLAKGKLSLPPYQVEPYTKKTTMMVTLSSDFSGALHQVLSAFAWRKLNLTKIESRPMKTGLGNYFFIIDVDCEADDVLIPGVMQELEALGCGVELLGSYPCFFHTSLKLTEASSV | not soluble |
| MIKATDRKLVVGLEIGTAKVAALVGEVLPDGMVNIIGVGSCPSRGMDKGGVNDLESVVKCVQRAIDQAELMADCQISSVYLALSGKHISCQNEIGMVPISEEEVTQEDVENVVHTAKSVRVRDEHRVLHVIPQEYAIDYQEGIKNPVGLSGVRMQAKVHLITCHNDMAKNIVKAVERCGLKVDQLIFAGLAASYSVLTEDERELGVCVVDIGGGTMDIAVYTGGALRHTKVIPYAGNVVTSDIAYAFGTPPSDAEAIKVRHGCALGSIVGKDESVEVPSVGGRPPRSLQRQTLAEVIEPRYTELLNLVNEEILQLQEQLRQQGVKHHLAAGIVLTGGAAQIEGLAACAQRVFHTQVRIGAPLNITGLTDYAQEPYYSTAVGLLHYGKESHLNGEAEVEKRVTASVGSWIKRLNSWLRKEF | not soluble |
| GMWDETELGLYKVNEYVDARDTNMGAWFEAQVVRVTRKAPSRDEPCSSTSRPALEEDVIYHVKYDDYPENGVVQMNSRDVRARARTIIKWQDLEVGQVVMLNYNPDNPKERGFWYDAEISRKRETRTARELYANVVLGDDSLNDCRIIFVDEVFKIERPGE | soluble |
| MGSDKIHHHHHHMSPREVAAPHEVKARLYILDTNVLMHDPSALFRFEEHDILLPMIVLEELDQHKKGLSEQARNVRQVSRYLDEMLTDTADLDRGLVLPYAQGRLYFQTAAHQQALPEDLAGGKADHEILAVTLALQNRHPEKDVILVSKDINLRIKGRTLGIRVEDYQNDRALDDVDLLYTGAETLSADFWDLHSRDLDAWQESGRSYYKISGPAIQRWHSNQFIAINVEEGAPEDFAAIVREVRPEHAIIERITDYRSDRHAVWGILARNPEQNFALNLLMDPDIDFVTLLGHAGTGKTLLTLAAALHQIFEQKRYSEVIITRATVPVGDEIGFLPGTEEEKMLPWMGALEDNLEILARGSDEGGSWGRSATQDLINKRIRVKSMSFMRGRTFLEKFVIIDEAQNLTSKEMKTLITRAGPGTKIVCLGNIAQIDTPYLTETTSGLTYVVDRFKDWAYSGHITLRRGERSRLADFANDAL | not soluble |
| MPLRQKRLYWPLFFRDDLIMEKNKLQLEYVFDRVSTRSLWRYLSTPDGLSEWFAYDVRLEDNGDFYFQWDKNSGEKASVLEQREGERIRFQWHREQDQNACFEFVIHHSELTGGKSLEVIDYIAPEEVADMEHFWNNLISRLRLSLGAPE | not soluble |
| MSFETISVIGLGYIGLPTAAAFASRKKKVIGVDVNAHAVETINRGAIHIVEPDLDKVVKIAVEGGYLQAVTKPQAADAFLIAVPTPFKGDHEPDMIFVESAAKSIAPVLKKGDLVILESTSPVGATEQMAQWLAEARPDLSFPQQAGEAADINIAYCPERVLPGQVMVELIQNDRVIGGMTPKCSARASALYKIFLEGECVVTNSRTAEMCKLTENSFRDVNIAFANELSLICDEQGINVWELIRLANRHPRVNILQPGPGVGGHCIAVDPWFIVSQNPQLARLIHTARLVNDGKPLWVVDRVKAAVADCLAASDKRASEVKIACFGLAFKPDIDDLRESPAVGVARLIAEWHVGETLVVEPNVEQLPKSLMGLVTLKDTATALQQADVLVMLVDHKQFKAIKPEDIKQQWIVDTKGVWR | not soluble |
| MELACHECGFKGEVQDFAFLCKNGCPACGESDMRQCPRCGAHVMFSRAAALEKEEMQMRDLCRELAGIERSDKPEVQKRAMELIGGLRRMNERWNIPQLGDFIKQRSRELFF | not soluble |
| VDTHSEVLIFEVIPADDFLQQQLQITVQDRVWHVKRVRYRKQKPMALEETWMPLALFPDLTWQVMENSKYHFIEEVKKMVIDRSEQEIIPLMPTEEMSRLLNISQTKPILEKVSRGYLVDGRVFEYSRNAFNT | soluble |
| SLGLKAAQKTLFPLRSIDDVVRLFAAELGREEPDLVLLSLVLGFVEHFLAVNRVIPTNVPELTFQPSPAPDPPGGLTYFPVADLSIIAALYARFTAQIRGAVDLSLYPREGGVSSRELVKKVSDVIWNSLSRSYFKDRAHIQSLFSFITGWSPVGTKLDSSGVAFAVVGACQALGLRDVHLALSEDHAWVVFGPNGEQTAEVTWHGKGNEDRRGQTVNAGVAERSWLYLKGSYMRCDRKMEVAFMVCAINPSIDLHTDSLELLQLQQKLLWLLYDLGHLERYPMALGNLADLEELEPTPGRPDPLTLYHKGIASAKTYYRDEHIYPYMYLAGYHCRNRNVREALQAWADTATVIQDYNYCREDEEIYKEFFEVANDVIPNLLKEAASLLEAGEERPGEQSQGTQSQGSALQDPECFAHLLRFYDGICKWEEGSPTPVLHVGWATFLVQSLGRFEGQVRQKVRIVSREAEAAEAEEPWGEEAREGRRRGPRRESKPEEPPPPKKPALDKGLGTGQGAVSGPPRKPPGTVAGTARGPEGGSTAQVPAPAASPPPEGPVLTFQSEKMKGMKELLVATKINSSAIKLQLTAQSQVQMKKQKVSTPSDYTLSFLKRQRKG | soluble |
| MTYRVLDPNAQEGSPTEVLVRMYSHPQLRRLYADTEACYTTALADSITGEMRAAFERLRVSDPQMAIPRYVAFHVSGLQQSVVAVPDLVSVSIDKYIRPDYPVYLQFFSEYARQTMSPEYVVRDAVLGWICSERPLPRETVLTLRFQLEYWGDIYRLMKQVFPQASDEWLFGFTSDQLLWMKQNRKILLDNALKRGEMESSQPTVTDRYFKELPPDQLLPPEAPRLIGHWLGTNL | not soluble |
| MKVEGRCHCGAIAYEAEVEPGTITVCHCADCQMQSGSVFRANISAPADTFVLLQGTPKEYLKIAASGARRMHAFCGNCGGPIYSCAAENPQSYSLRVGALEQRHALGRPLRQIWARRRFSWLSSLGDVEEFDGQP | not soluble |
| MNLHEYQAKEILARYGVPVPPGKVAYTPEEAKRIAEEFGKRVVIKAQVHVGGRGKAGGVKLADTPQEAYEKAQAILGMNIKGLTVKKVLVAEAVDIAKEYYAGLILDRAKKRVVLMLSKEGGVDIEEVAAERPEAIHKFWIDPHKGFRPFEAREMVKRAGLEGNLNKLAQVLVALYRAYEGVDASIAEINPLVVTTDGGIVAADAKIVLDDNALFRHPDLAELREVEAEHPLEVEASNYGFAYVKLDGNIGIIGNGAGLVMYTLDLVNRVGGKPANFLDIGGGAKADVVYNALKVVLKDPDVKGVFINIFGGITRADEVAKGVIRALEEGLLTKPVVMRVAGTAEEEAKKLLEGKPVYMYPTSIEAAKVIVAMVGGAA | soluble |
